Source: patent US20130196933A1

Key:
[1] = biological target: T7-FoxM1B WT protein (CMV T7-FoxM1B; CMV WT FoxM1B 1-748) (human) (UniProt Q08050); assay: cell-based or functional assay
Cdk1 protein (human) = Cdk1 protein (human) (UniProt P06493); assay: cell-based or functional assay
Sequence of Cdk1 protein (human) (P06493 whole entry): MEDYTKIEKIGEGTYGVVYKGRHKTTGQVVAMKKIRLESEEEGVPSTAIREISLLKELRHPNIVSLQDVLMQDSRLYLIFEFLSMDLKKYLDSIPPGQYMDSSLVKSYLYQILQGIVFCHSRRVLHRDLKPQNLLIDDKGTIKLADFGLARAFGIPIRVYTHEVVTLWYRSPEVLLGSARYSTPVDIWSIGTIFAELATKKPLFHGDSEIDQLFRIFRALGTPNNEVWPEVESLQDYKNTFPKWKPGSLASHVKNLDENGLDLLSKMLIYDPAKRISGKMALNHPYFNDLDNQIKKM

FoxM1B transcriptional activity (6×FoxM1B TATA-luciferase reporter, U2OS cells) (% stimulation) [1] | FoxM1B transcriptional activity (6×FoxM1B TATA-luciferase reporter, U2OS cells) (Cdk1 protein (human)) | Substance
50 |  | CBP protein (CREB Binding Protein, CMV-CBP) (enzyme)
 | 80 % reduction | T7-FoxM1B L641A mutant protein (from UniProt Q08050 1-763)
